One block for each molecule: values may come before it.
Assays:
[1] = biological target: Human CD19, wild-type full-length protein expressed on cells (human) (UniProt P15391); test: high-throughput flow cytometry, HEK-293T cells with WT CD19 vs vector, at 0.25 ug/ml
[2] = biological target: Human CD19, wild-type full-length protein expressed on cells (human) (UniProt P15391); test: high-throughput flow cytometry, HEK-293T cells transfected with WT CD19; mean of four replicates; empty vector 0
[3] = biological target: FITC-Labeled human CD19 protein (ACROBiosystem, Cat-CD9-HF251) (human) (UniProt P15391); test: flow cytometry, ND539 CAR T cells day 9; CD19-FITC protein premixed with anti-CD19 PE (FMC63 clone) 1:1; PE signal read on the cells that hold CD19-FITC by their CAR; competitor CD19 CAR 45 (untransduced 2.25)
[4] = biological target: FITC-Labeled human CD19 protein (ACROBiosystem, Cat-CD9-HF251) (human) (UniProt P15391); test: flow cytometry, ND539 CAR T cells day 9; CD19-FITC protein premixed with anti-CD19 PE (FMC63 clone) 1:3; PE signal read on the cells that hold CD19-FITC by their CAR; competitor CD19 CAR 45 (untransduced 2.95)
[5] = biological target: FITC-Labeled human CD19 protein (ACROBiosystem, Cat-CD9-HF251) (human) (UniProt P15391); test: flow cytometry, ND539 CAR T cells day 9; CD19-FITC protein premixed with anti-CD19 PE (FMC63 clone) 1:1; PE signal read on the cells that hold CD19-FITC by their CAR; competitor CD19 CAR 43 (untransduced 2.25)
[6] = biological target: FITC-Labeled human CD19 protein (ACROBiosystem, Cat-CD9-HF251) (human) (UniProt P15391); test: flow cytometry, ND539 CAR T cells day 9; CD19-FITC protein premixed with anti-CD19 PE (FMC63 clone) 1:1; PE signal read on the cells that hold CD19-FITC by their CAR; competitor CD19 CAR 44 (untransduced 2.25)
[7] = biological target: FITC-Labeled human CD19 protein (ACROBiosystem, Cat-CD9-HF251) (human) (UniProt P15391); test: flow cytometry, ND539 CAR T cells day 9; CD19-FITC protein premixed with anti-CD19 PE (FMC63 clone) 1:3; PE signal read on the cells that hold CD19-FITC by their CAR; competitor CD19 CAR 46 (untransduced 2.95)
[8] = biological target: FITC-Labeled human CD19 protein (ACROBiosystem, Cat-CD9-HF251) (human) (UniProt P15391); test: flow cytometry, ND539 CAR T cells day 9; CD19-FITC protein premixed with anti-CD19 PE (FMC63 clone) 1:1; PE signal read on the cells that hold CD19-FITC by their CAR; competitor CD19 CAR 42 (untransduced 2.25)
[9] = biological target: FITC-Labeled human CD19 protein (ACROBiosystem, Cat-CD9-HF251) (human) (UniProt P15391); test: flow cytometry, ND539 CAR T cells day 9; CD19-FITC protein premixed with anti-CD19 PE (FMC63 clone) 1:3; PE signal read on the cells that hold CD19-FITC by their CAR; competitor CD19 CAR 43 (untransduced 2.95)
[10] = biological target: FITC-Labeled human CD19 protein (ACROBiosystem, Cat-CD9-HF251) (human) (UniProt P15391); test: flow cytometry, ND539 CAR T cells day 9; CD19-FITC protein premixed with anti-CD19 PE (FMC63 clone) 1:3; PE signal read on the cells that hold CD19-FITC by their CAR; competitor CD19 CAR 44 (untransduced 2.95)
[11] = biological target: FITC-Labeled human CD19 protein (ACROBiosystem, Cat-CD9-HF251) (human) (UniProt P15391); test: flow cytometry, ND539 CAR T cells day 9; CD19-FITC protein premixed with anti-CD19 PE (FMC63 clone) 1:1; PE signal read on the cells that hold CD19-FITC by their CAR; competitor CD19 CAR 52 (untransduced 2.25)
[12] = biological target: FITC-Labeled human CD19 protein (ACROBiosystem, Cat-CD9-HF251) (human) (UniProt P15391); test: flow cytometry, ND539 CAR T cells day 9; CD19-FITC protein premixed with anti-CD19 PE (FMC63 clone) 1:3; PE signal read on the cells that hold CD19-FITC by their CAR; competitor CD19 CAR 42 (untransduced 2.95)
[13] = biological target: FITC-Labeled human CD19 protein (ACROBiosystem, Cat-CD9-HF251) (human) (UniProt P15391); test: flow cytometry, ND539 CAR T cells day 9; CD19-FITC protein premixed with anti-CD19 PE (FMC63 clone) 1:1; PE signal read on the cells that hold CD19-FITC by their CAR; competitor CAR-FMC63 (untransduced 2.25)
[14] = biological target: FITC-Labeled human CD19 protein (ACROBiosystem, Cat-CD9-HF251) (human) (UniProt P15391); test: flow cytometry, ND539 CAR T cells day 9; CD19-FITC protein premixed with anti-CD19 PE (FMC63 clone) 1:1; PE signal read on the cells that hold CD19-FITC by their CAR; competitor CD19 CAR 46 (untransduced 2.25)
[15] = biological target: FITC-Labeled human CD19 protein (ACROBiosystem, Cat-CD9-HF251) (human) (UniProt P15391); test: flow cytometry, ND539 CAR T cells day 9; CD19-FITC protein premixed with anti-CD19 PE (FMC63 clone) 1:3; PE signal read on the cells that hold CD19-FITC by their CAR; competitor CD19 CAR 52 (untransduced 2.95)
[16] = biological target: FITC-Labeled human CD19 protein (ACROBiosystem, Cat-CD9-HF251) (human) (UniProt P15391); test: flow cytometry, ND539 CAR T cells day 9; CD19-FITC protein premixed with anti-CD19 PE (FMC63 clone) 1:3; PE signal read on the cells that hold CD19-FITC by their CAR; competitor CAR-FMC63 (untransduced 2.95)
[17] = biological target: T1, Human CD19, wild-type full-length protein expressed on cells (human, UniProt P15391 20-556); test: scFv clone screen on NALM6 cells with and without CD19
T1 construct: also called WT CD19; CD19 wild type protein
T1 sequence: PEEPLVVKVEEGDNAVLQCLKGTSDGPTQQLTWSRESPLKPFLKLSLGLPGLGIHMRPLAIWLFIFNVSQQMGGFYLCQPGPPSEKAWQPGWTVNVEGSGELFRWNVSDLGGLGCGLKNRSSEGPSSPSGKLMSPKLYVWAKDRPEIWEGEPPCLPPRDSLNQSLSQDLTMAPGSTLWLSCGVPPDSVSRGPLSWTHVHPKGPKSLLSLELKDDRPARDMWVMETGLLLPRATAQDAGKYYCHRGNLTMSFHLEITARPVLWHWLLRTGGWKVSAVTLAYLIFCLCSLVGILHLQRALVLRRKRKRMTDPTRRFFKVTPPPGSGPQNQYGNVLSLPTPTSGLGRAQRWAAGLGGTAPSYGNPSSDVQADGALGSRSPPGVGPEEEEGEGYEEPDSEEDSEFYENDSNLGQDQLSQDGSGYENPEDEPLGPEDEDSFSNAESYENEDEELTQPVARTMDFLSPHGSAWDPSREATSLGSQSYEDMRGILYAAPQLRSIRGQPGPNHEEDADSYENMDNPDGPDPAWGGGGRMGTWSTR
From the text: To ensure that the up to (30) clones could recognize native CD19 expressed on tumor cells, the clones (scFv) were also screened against NALM6 tumor cell line positive (+) CD19 expression (NALM6 cell line⁺ CD19). CD19 knockout Nalm6 cell line (NALM6 cell line⁻ CD1; or CD19KO Nalm6 cell line) were used as a negative control for the selection. CD19KO Nalm6 cell lines used for the screen were engineered CRISPR knocked-out (KO) Nalm6-CD19KO cells. Clones that bound CD19⁺ NALM6 tumor cells, but not CD19-NALM6 tumor cells (CD19KO) were selected (Step 4).

SIGLEC 8 = biological target: T2, SIGLEC 8 (UniProt Q9NYZ4 17-363, limits assumed); test: counter-screen of the scFv clones against SIGLEC (Step 3)
T2 construct: Counter-screen reagent of Step 3

SIGLEC 9 = biological target: T3, SIGLEC 9 (UniProt Q9Y336 18-348, limits assumed); test: as above
T3 construct: Counter-screen reagent of Step 3

SIGLEC 7 = biological target: T4, SIGLEC 7 (UniProt Q9Y286 19-357, limits assumed); test: as above
T4 construct: Counter-screen reagent of Step 3
T4 sequence (Q9Y286 19-357 limits assumed): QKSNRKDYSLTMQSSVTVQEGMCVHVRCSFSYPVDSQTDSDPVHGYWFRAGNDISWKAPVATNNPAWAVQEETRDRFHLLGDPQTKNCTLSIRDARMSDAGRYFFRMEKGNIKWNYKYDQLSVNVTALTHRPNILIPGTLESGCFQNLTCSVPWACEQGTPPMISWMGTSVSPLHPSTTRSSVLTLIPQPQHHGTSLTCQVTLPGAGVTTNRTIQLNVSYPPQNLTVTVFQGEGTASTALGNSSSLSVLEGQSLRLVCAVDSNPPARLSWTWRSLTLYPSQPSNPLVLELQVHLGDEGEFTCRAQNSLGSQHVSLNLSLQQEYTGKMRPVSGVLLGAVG

T2 sequence (Q9NYZ4 17-363 limits assumed): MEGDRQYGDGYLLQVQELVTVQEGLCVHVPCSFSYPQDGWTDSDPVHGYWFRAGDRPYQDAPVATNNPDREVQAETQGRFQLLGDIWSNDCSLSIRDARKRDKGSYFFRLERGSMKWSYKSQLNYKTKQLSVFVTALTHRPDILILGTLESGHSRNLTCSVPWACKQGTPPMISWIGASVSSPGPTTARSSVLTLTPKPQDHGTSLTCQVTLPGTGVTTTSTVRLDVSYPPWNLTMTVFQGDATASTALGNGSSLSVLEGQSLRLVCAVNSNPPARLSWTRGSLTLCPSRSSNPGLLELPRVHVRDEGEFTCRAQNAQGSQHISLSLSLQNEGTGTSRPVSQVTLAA
T3 sequence (Q9Y336 18-348 limits assumed): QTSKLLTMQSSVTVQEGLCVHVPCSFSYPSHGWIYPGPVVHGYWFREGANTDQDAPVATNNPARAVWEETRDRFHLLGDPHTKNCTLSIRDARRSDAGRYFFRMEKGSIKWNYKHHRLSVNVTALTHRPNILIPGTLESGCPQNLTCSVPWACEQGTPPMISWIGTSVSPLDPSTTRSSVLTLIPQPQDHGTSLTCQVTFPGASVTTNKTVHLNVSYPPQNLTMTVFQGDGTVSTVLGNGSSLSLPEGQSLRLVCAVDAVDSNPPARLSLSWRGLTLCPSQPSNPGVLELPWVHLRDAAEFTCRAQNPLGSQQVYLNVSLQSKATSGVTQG

Signal:Background [1]: 50
mfi at 0.125 ug/ml [2]: 500000 mfi
mfi at 0.250 ug/ml [2]: 750000 mfi
mfi at 0.500 ug/ml [2]: 1.25e+06 mfi
mfi at 1.000 ug/ml [2]: 1.75e+06 mfi
mfi at 2.000 ug/ml [2]: 1.75e+06 mfi
mfi at 4.000 ug/ml [2]: 2e+06 mfi
Molecule: HIB19 monoclonal antibody (BioLegend, Cat no. 302202)

Gated for Anti-CD19 PE Expression [3]: 15.9 mfi
Gated for Anti-CD19 PE Expression [4]: 18.1 mfi
Gated for Anti-CD19 PE Expression [5]: 0.041 mfi
Gated for Anti-CD19 PE Expression [6]: 1.73 mfi
Gated for Anti-CD19 PE Expression [7]: 0.78 mfi
Gated for Anti-CD19 PE Expression [8]: 0.045 mfi
Gated for Anti-CD19 PE Expression [9]: 0.97 mfi
Gated for Anti-CD19 PE Expression [10]: 1.26 mfi
Gated for Anti-CD19 PE Expression [11]: 3.29 mfi
Gated for Anti-CD19 PE Expression [12]: 0.48 mfi
Gated for Anti-CD19 PE Expression [13]: 0.8 mfi
Gated for Anti-CD19 PE Expression [14]: 0.12 mfi
Gated for Anti-CD19 PE Expression [15]: 2.35 mfi
Gated for Anti-CD19 PE Expression [16]: 1.63 mfi
Molecule: Anti CD19 (FMC63 Clone)-PE (antibody)

binding result [17]: binds
binding result (SIGLEC 8): no binding
binding result (SIGLEC 9): no binding
binding result (SIGLEC 7): no binding
B1: CD19 E7 scFv (P4) (scFv)
scFv: DIQMTQSPSSLSASVGDRVTITCRASQDITRYLNWYQQKPGKAPKLLIYAASSLQSGVPSRFSGSGSGTDFTLTISSLQPEDFATYYCQQSYSYPPTFGQGTKVEIKGGGGSGGGGSGGGGSQVQLVESGGGVVQPGRSLRLSCAASGFTFRDYGMHWVRQAPGKGLEWVAVISYEGSNEYYADSVKGRFTISRDNSKNTLYLQMNSLRAEDTAVYYCARDRGFAGWYDYAFDPWGQGTLVTVSS
notes: also called 45; clone 45

From US20240123068A1 (KITE PHARMA, published 2024)
